# B1: Mothers against decapentaplegic homolog 4 (Homo sapiens), Q13485 (parent)
# chain: MDNMSITNTPTSNDACLSIVHSLMCHRQGGESETFAKRAIESLVKKLKEKKDELDSLITAITTNGAHPSKCVTIQRTLDGRLQVAGRKGFPHVIYARLWRWPDLHKNELKHVKYCQYAFDLKCDSVCVNPYHYERVVSPGIDLSGLTLQSNAPSSMMVKDEYVHDFEGQPSLSTEGHSIQTIQHPPSNRASTETYSTPALLAPSESNATSTANFPNIPVASTSQPASILGGSHSEGLLQIASGPQPGQQQNGFTGQPATYHHNSTTTWTGSRTAPYTPNLPHHQNGHLQHHPPMPPHPGHYWPVHNELAFQPPISNHPAPEYWCSIAYFEMDVQVGETFKVPSSCPIVTVDGYVDPSGGDRFCLGQLSNVHRTEAIERARLHIGKGVQLECKGEGDVWVRCLSDHAVFVQSYYLDREAGRAPGDAVHKIYPSAYIKVFDLRQCHRQMQQQAATAQAAAAAQAAAVAGNIPGPGSVGGIAPAISLSAAAGIGVDDLRRLCILRMSFVKGWGPDYPRQSIKETPCWIEIHLHRALQLLDEVLHTMPIADPQPLD
# Variants of: B1
# Details: with rnf43_human RNF43, Q68DV7
row,effect of a mutation on the interaction,Variant
1,with no effect,D351H

# Variants of: B1
# Details: with ros1_human ROS1, P08922
row,effect of a mutation on the interaction,Variant
1,with no effect,D351H

# Variants of: B1
# Details: with rl5_human RPL5, P46777
row,effect of a mutation on the interaction,Variant
1,with no effect,D351H

# Variants of: B1
# Details: with runx1_human RUNX1, Q01196
row,effect of a mutation on the interaction,Variant
1,with no effect,D351H

# Variants of: B1
# Details: with ruvb1_human RUVBL1, Q9Y265
row,effect of a mutation on the interaction,Variant
1,with no effect,D351H

# Variants of: B1
# Details: with sdha_human SDHA
row,effect of a mutation on the interaction,Variant
1,with no effect,D351H

# Variants of: B1
# Details: with sf3b1_human SF3B1, O75533
row,effect of a mutation on the interaction,Variant
1,with no effect,D351H

# Variants of: B1
# Details: with skp2_human SKP2, Q13309
row,effect of a mutation on the interaction,Variant
1,with no effect,D351H

# Variants of: B1
# Details: with smad1_human SMAD1, Q15797
row,effect of a mutation on the interaction,Variant
1,with no effect,D351H

# Variants of: B1
# Details: with smad2_human SMAD2, Q15796
row,effect of a mutation on the interaction,Variant
1,with no effect,D351H

# Variants of: B1
# Details: with smad3_human SMAD3, P84022
row,effect of a mutation on the interaction,Variant
1,with no effect,D351H

# Variants of: B1
# Details: with smca4_human SMARCA4, P51532
row,effect of a mutation on the interaction,Variant
1,with no effect,D351H

# Variants of: B1
# Details: with snf5_human SMARCB1, Q12824
row,effect of a mutation on the interaction,Variant
1,with no effect,D351H

# Variants of: B1
# Details: with smo_human SMO
row,effect of a mutation on the interaction,Variant
1,with no effect,D351H

# Variants of: B1
# Details: with sox10_human SOX10, P56693
row,effect of a mutation on the interaction,Variant
1,with no effect,D351H

# Variants of: B1
# Details: with sox2_human SOX2, P48431
row,effect of a mutation on the interaction,Variant
1,with no effect,D351H

# Variants of: B1
# Details: with sox3_human SOX3, P41225
row,effect of a mutation on the interaction,Variant
1,with no effect,D351H

# Variants of: B1
# Details: with sox4_human SOX4, Q06945
row,effect of a mutation on the interaction,Variant
1,with no effect,D351H

# Variants of: B1
# Details: with sox9_human SOX9, P48436
row,effect of a mutation on the interaction,Variant
1,with no effect,D351H

# Variants of: B1
# Details: with spop_human SPOP
row,effect of a mutation on the interaction,Variant
1,with no effect,D351H

# Variants of: B1
# Details: with src_human SRC
row,effect of a mutation on the interaction,Variant
1,with no effect,D351H

# Variants of: B1
# Details: with stat3_human STAT3, P40763
row,effect of a mutation on the interaction,Variant
1,with no effect,D351H

# Variants of: B1
# Details: with stk38_human STK38, Q15208
row,effect of a mutation on the interaction,Variant
1,with no effect,D351H

# Variants of: B1
# Details: with ksyk_human SYK
row,effect of a mutation on the interaction,Variant
1,with no effect,D351H

# Variants of: B1
# Details: with eloc_human ELOC
row,effect of a mutation on the interaction,Variant
1,with no effect,D351H

# Variants of: B1
# Details: with tfe2_human TCF3, P15923
row,effect of a mutation on the interaction,Variant
1,with no effect,D351H

# Variants of: B1
# Details: with tead1_human TEAD1, P28347
row,effect of a mutation on the interaction,Variant
1,with no effect,D351H

# Variants of: B1
# Details: with tead2_human TEAD2, Q15562
row,effect of a mutation on the interaction,Variant
1,with no effect,D351H

# Variants of: B1
# Details: with tead3_human TEAD3, Q99594
row,effect of a mutation on the interaction,Variant
1,with no effect,D351H

# Variants of: B1
# Details: with tert_human TERT
row,effect of a mutation on the interaction,Variant
1,with no effect,D351H

# Variants of: B1
# Details: with tgfr2_human TGFBR2, P37173
row,effect of a mutation on the interaction,Variant
1,with no effect,D351H

# Variants of: B1
# Details: with tnr14_human TNFRSF14, Q92956
row,effect of a mutation on the interaction,Variant
1,with no effect,D351H

# Variants of: B1
# Details: with tpx2_human TPX2, Q9ULW0
row,effect of a mutation on the interaction,Variant
1,with no effect,D351H

# Variants of: B1
# Details: with tsc2_human TSC2, P49815
row,effect of a mutation on the interaction,Variant
1,with no effect,D351H

# Variants of: B1
# Details: with tshr_human TSHR
row,effect of a mutation on the interaction,Variant
1,with no effect,D351H

# Variants of: B1
# Details: with vegfa_human VEGFA
row,effect of a mutation on the interaction,Variant
1,with no effect,D351H

# Variants of: B1
# Details: with vhl_human VHL
row,effect of a mutation on the interaction,Variant
1,with no effect,D351H

# Variants of: B1
# Details: with wt1_human WT1, P19544
row,effect of a mutation on the interaction,Variant
1,with no effect,D351H

# Variants of: B1
# Details: with wwtr1_human WWTR1, Q9GZV5
row,effect of a mutation on the interaction,Variant
1,with no effect,D351H

# Variants of: B1
# Details: with xpo1_human XPO1, O14980
row,effect of a mutation on the interaction,Variant
1,with no effect,D351H

# Variants of: B1
# Details: with 1433b_human YWHAB
row,effect of a mutation on the interaction,Variant
1,with no effect,D351H

# Variants of: B1
# Details: with 1433e_human YWHAE
row,effect of a mutation on the interaction,Variant
1,with no effect,D351H

# Variants of: B1
# Details: with 1433z_human YWHAZ
row,effect of a mutation on the interaction,Variant
1,with no effect,D351H

# Variants of: B1
# Details: with arc1a_human ARPC1A
row,effect of a mutation on the interaction,Variant
1,causing an interaction,D351H

# From IntAct's records for PubMed 35512704
